# Source: the DeepSol protein solubility set
# Assay: soluble on expression in E. coli; label from the status in PepcDB or PDB records
row,Sequence,soluble on expression in E. coli
1,MKGVVEGQCGQQNALVGLANTFGTSNQRVAPSNAAASLLPSSSMGEQMANEFLRQQARTMAPTSFSMKSMQNNLPQASASSSLAANWTKEFQPRQNQLASQWSQQYTSSAPSMESAWRQVQAPSMTSTSSHQPITDAGMWSSEYLDTVDTSLTKSSGTQNWADDFMEQQDNYGMENTWKDAQAFEQRWEEIKRDMEKDESLQSPENYVYQEANPFTTMSDPLMEGDNLMRNGDIGNAMLAYEAAVQKDPQDARAWCKLGLAHAENEKDQLAMQAFQKCLQIDAGNKEALLGLSVSQANEGMENEALHQLDKWMSSYLGSNSTQVTTTPPLYSSFLDSDTFNRVEARFLDAARQQGATPDPDLQNALGVLYNLNRNFARAVDSLKLAISKNPTDARLWNRLGATLANGDHTAEAISAYREALKLYPTYVRARYNLGISCMQLSSYDEALKHFLSALELQKGGNDASGIWTTMRSAAIRTSNVPDNLLRAVERRDLAAVKASLV,not soluble
2,MGHHHHHHGGHMSLQDFKKLPTVLTAEELIDKIFRRAARVEGRNPKEKALNKLATISNVSRDYFGKIIGAHPSYENLPDFYREMVDVVVGIRQLKKSLVALKWADGMIQKVVSRAVREVKGGKNPSAVVKSAYGRVASIIEQIDDELRFLNDAKNRMREIPILQDLPTIVVAGYPNVGKSSLVARISTVKPEVASYPFTTKKINLGFAEFAGKRVQIIDTPGLLDRPLSKRNRIERRAVLALKHLADIILFVIDPTETCGYSLEKQLSLLEEIKGYFAKPTVEVYSKADMHDRRDRQAYSAVTGEGIDELIKEIEKMVKIHSQTSTVIAPSGQTSTQEQHSEGGS,soluble
3,MARNAEKAMTALARWRRMKEEEERGPIARRPHDVKDCRNLSDAERFRREIVRDASKKITAIQNPGLGEFKLRDLNDEVNRLIKLKHAWEQRIRELGGTDYRKYAQKELDAIGRETGNSRGYKYFGAAKDLPGVRELFEKSTEGEEQRRHRADLLRNIDAHYFGYLDDEDGRLIPLEKLIEEKNIERINKEFAEKQAQKQQTASDAAPENIYKVEEDDDDDLETQESTVIGEDGRPMTIRHVLLPTQQDIEEMLLEQKKQELMAKYLD,not soluble
4,MMRGSHHHHHTDPISYIIRKADSVNKALDSAVPLREPLKIHEAMRYSLLAGGKRVRPVLCIAACELVGGEESLAMPAACAVEMIHTMSLIHDDVYGEDVAVLAGDALLSFAFEHLASATSSEVSPARVVRAVGELAKAIGTEGLVAGQVVDISNVGLEHLKFIHLHKTAALLEASAVLGGIIGGGSDEEIERLRKFARCIGLLFQVVDDILDVTIADKLTYPKLMGLEKSREFAEKLNTEARDQLLGFDSDKVAPLLALANYIANRQN,soluble
5,MSPNHVDHLVLPVAQIDIATARLANLGFTVAPLAVHPFGTANACVFLADGTYLEPLAVNDPAKYGESANRGDVFTGRDRAFRESCGPEGFSALVARSGDAFVDHERFVAAGLSAGDLFEFSRPVQMPDGSRSEAAFRLAFAASGAAADFFLFGCQRLKALPGDRTELERHANAVTGLFEIVLFSGGDAKAARLIETVFGCKSAMSPGGDMVFATGNARIRLTEKPAVADLDLNTSNRGDGGLRGAGIVFSVTDLAVTAAVLAANGVSSMEAGGRLVVPAAPGQGVAFAFEEI,not soluble
6,MASGKRKGLSFDDKKTRLLELFNETCDFYTLKELEKIAPKLKGIITQSVKDVLQSLVDDDLVNSDKCGVQTIYWCLPSEAVAKRQRRLDALQQQLAEKRQKLTALQRQLVQVQAGREDSVERTAVLERLAACEAAWRERQRTLESYLECDPDVLAQRETETKTLIEQANRWTDNLYVIRSYVQRNLGVDLDLFDQQFELKPALQYLE,not soluble
7,PARLSTADKYTENPVSGVMAQLYSARSKNSWGMGDFNDLGLLAETLAPQADYLLINPLHAAEPMPPVEDSPYLPTTRRFINPIYIRIEDIPEHLLLDDDLQNDIAELAEKFTALNLTPEKIERNPIFDAKLQVLHAVFNVEREPAREQDFQDFIATEGQGLRDFASWCADQELAVLESSAAHAALPEKESLIQFYMWQQWICDQQLGAAQTRATD,not soluble
8,MTASIFSGVIPALMTPCRQDRTPDFDALVRKGKELIADGMSAVVYCGSMGDWPLLTDEQRMEGVERLVKAGIPVIVGTGAVNTASAVAHAVHAQKVGAKGLMVIPRVLSRGSVIAAQKAHFKAILSAAPEIPAVIYNSPYYGFATRADLFFALRAEHKNLVGFKEFGGPADMRYAAENITSRDDEVTLMIGVDTAVVHGFVNCGATGAITGIGNVLPKEVIHLCKLSQAAAKGDADARARALELEQALAVLSSFDEGPDLVLYFKYMMVLKGDKEYTLHFNETDALTDSQRGYVEAQFKLFNSWYADWSKLPGAVQTCKAA,soluble
9,MLKANVFCAGPVEALILDWAGTTIDFGSLAPVYAFMELFKQEGIEVTQAEAREPMGTEKSEHIRRMLGNSRIANAWLSIKGQASNEEDIKRLYDLFAPIQTRIVAQRSQLIPGWKEVFDKLIAQGIKVGGNTGYGPGMMAPALIAAKEQGYTPASTVFATDVVRGRPFPDMALKVALELEVGHVNGCIKVDDTLPGIEEGLRAGMWTVGVSCSGNEVGLDREDWQALSSDEQQSYRQHAEQRLFNAGAHYVIDSVADLETVITDVNRRLARGEKP,soluble
10,MIKLSPIDKYKQDLTRDDFLFDAAQENAVIHLQRLYDDLQSKPLAVSGFKKVLNRWKKVYKKQEQEPIKGLYFWGGVGRGKTYLVDTFFESLPFNNKMRVHFHRFMHRVHQELKSLSGQSDPLKIIAKKFADETQIICFDEFFVSDITDAMILGTLFEELFAHNVTLVATSNIIPDELYRNGLQRERFLPAIKLINKHTLIVNVDSGVDYRLRTLEQAEIFHYPLDAQADENLKHYFKQLSTDEGKSGQSIEIHNRPLKTVLVSDGVVYFDFSVLCESARSQGDYMEISQLYHTVLMANVKEMGPDSDDTTRRFIALVDEFYERNVKLIMSAELPLDDLYSGGRLAFEFKRCLSRLQEMQSHDYLASEHLPLEHHHHHH,not soluble
11,MGSDKIHHHHHHMGREIFNRRLPDNYNDFSHSMDNAANGHYFLRVASSNYKRPDGKNVRTVRDVIAEVDQNGVVVDEWRLFDILDPYRDVIMKTLDQGAVCLNIDASQSGHTLSEEDLAALDSSDKFGDIVGSGAGRNWAHVNSVDYDSEDDSIIISSRHQSAIIKIGRDKKVKWILGTPAGWKAPFNAAILTPVDSKGQKIACQDSGCEGDFDWTWTQHTAFKIDSKSKGDILYLSAFDNGDGRGLEQPAMQSMKYSRSVIYKIDQKNKTVQQIWQYGKERGNEWFSPVTSITEYQTDKNSVFVYSATAGGAFDLSVGAFTSLPNPYLEEFKWGEKEPAVEMQIHGARGYQAMPFSLTKALTE,not soluble
12,MSLEIKFLSLCILAGVLFVSQVNASANNGKDDVKYAALTQKDLDALPVEKRASVLDELGFIHEYGLSVPMNRERALQYYKQACELGGNYGCYNVKYAYQYGDGVAKDSAQANKYAKKMNLDNLLIEQEYIDKFSQEIYMAKALADTDKSQRAAFISILIHALNNRPESDALFFSRIGFNQEKTFRLATLWSQDGDPQMDYQMGRLTLNDFSGRYADEPYQARPASLKWFRAAAEKGVVEAQSLLGGIYSGGEGDEWGIKPDIQEAQKWYGQAAKQGDSDAQIALGKIYYSGATGRTDYAKALALFTQVENDGTNSRSTMPLSWMYYNGLGTAPDCDKAWSYYKKASRYVGKKVEEGHHHHHH,not soluble
13,MSLSVAIRVKDLTKKYKLYQKRSERLANAFGKEKNIKEFYALKGVSFEISKGECVGIIGHNGAGKSTLLKLLTGVAFPTSGEIEINGRLASMLELGSGFNPELTGMENIYFNGSLNGLTKEEIDGKLKDILEFADIGNFIEQPVKNYSSGMFARLAFAVAINVDPDILIVDEILSVGDVGFQVKCMEKFNEFKKKGKTILYVSHGLGTVKKFCDRAIWLQKGEVVDDGNSVIVVERYYNLNFNPANIEQLKDHKSDIINSIAVKSNTKNVEYLEKLDLEVEYDLISNDLKDPNIVLEFRKTDYEPGTTRGNDQFVCGINSKDNIKNIPFNLGVNKLKVSLNKVNLVAGVYYIDFVLRDGEEEVYRKINGYSFTLNEGHHHHHH,soluble
14,MAENKKKNDDMATVEFESSEEVSIIPTFDKMGLREDLLRGIYAYGFEKPSAIQQRAIPAILKARDVIAQAQSGTGKTATFSISVLQSLDTQVRETQALILSPTRELAVQIQKVVLALGDYMNVQCHACIGGTNLGEDIRKLDYGQHVVSGTPGRVFDMIRRRNLRTRAIKLLVLDEADEMLNKGFKEQLYDIYRYLPPGAQVVLLSATLPHEILEMTSKFMTDPIRILVKRDELTLEGIKQFFVAVDREEWKFDTLIDLYDTLTITQAVLFCNTRRKVDWLTDKMKEANFTVSSMHGDMEQKDRDEVMKEFRAGTTRVLISTDVWARGLDVPQVSLVINYDLPNNRELYIHRIGRSGRFGRKGVAINFVKQDDVRILRDIEQYYSTQIDEMPMNIADII,not soluble
15,MISQVRIMDVIKPLGSFIQQDGMPVFGHLSAIPRSLDLESFQYLNEMDNPVSKWRKHFDYKQFQFVSLVTPDYVVGIAIADIRYLASGFCYLFDIKRNALTEQQWLKPCQLGYQTQPSSWLSKAHLANNTIQFSIEEGQWHVQFVTPSVNANITLHPQPQSLPLMLSTPTGYSGWTYTQKHNAMTVTGNLFILGEEQDLSQVAAGYDFSAGYMRRETSWRWASINHKDGDKSLGLNLAAGVNETGFCENVLWVDGERHLLNPVQFQFSRQNPRTDWRITSEDGCVDLVFEPINQRSEKKNFWFLKSNFRQYIGHFSGFVVDGNGSKHELDGVVGLTEDHYAKW,not soluble
16,MYKYISNELPQFFENGMLRFTQPGQFNDPFELLPRYVDFMGENTKQYILDNIEVLVKEIPQNEPWYIKLIPMSIKVFAIRLLLTSNHKRVKKVTDEIDAFGLSVANGQYRDIIDQSYGILCLSAKEDSLLMWSHYGNSHKGYVIEFDTSHKFFNQVIPNKKTGGVLDYAGTPLKVTYTKRRKTILFWQKAMSEVFLTKGSDWEYEQEYRMVLPLETSTEVVNGNIHLFHIPFDAVKSIIFGAKCEDEFIQNSIAKIHHWDSKHIDFQLFQFNLSDNDFELVRKKI,soluble
17,GMTTTQPEAKDRISSLPVPDATQVPEGVRKLWAKAEANIGFVPNVFRAQAVNGEQFLAWWNYFNLLLNKEGYLTNAERELVAVVVSGVNRCLYCAVSHGAALREFLGDPQKADAVAVNWRHADLTEREQALAAYAEKLTRHPAEVTAADLEPLRAVGLDDHQIMELVQVIGMFNLTNRVSSALGFVPNPEYYRQAR,soluble
18,MSLKINGEVTFKNNQVNYDENAITNLKLSGSDAKKENIKEVYMDLTNVGGPNKVLMDLNLLKDNSLSQSIGINDNVVAGEKEIPVTIVDKNGENHKAKGILTVKSKVGVGPLDFGFDESRIYFTVTDRFFNGDKNNDDPHGNNYDKKNPYTYHGGDLKGLTDKISYLKELGINTIWITPIVENTDFNQMFSQGKTQYSCHGYWAKDFEKLDPHLGTMDDLKTLIDTAHDSGIKIMVDVVLNHAGYGMKNKDNSGANNSPTEEDIAKFKGMFRENPGNDFITQESAGLPDFKTEDPEVREKLIEWQTGWIERSKTEKGNTIDYFRVDTVKHVDNTTWKAFKNKLTEINPSFKTIGEYFGADINNDGGQLQNGQMDALLDFGYKGKARDFVNGNIEGTSAYLDDRASKISNTNLMGQFLSSHDEDGFLKTVGDDLGKQMLAASLQITDKGIPVIYYGEELGMSGWNGFEQGDQNRYDMDFERLNDPKYKKVHDHYEKLLNIRKEYSKIFSKGNRKTIAGNNEEGYSVVLRSYNGKEITPMNLSENNEEKNITNGQNLFVVLNTKNEDKDISFKTNFKEGEKVKDLYSGNEYSIGKDGKVTVKVPSKEEGGTAILALKNREGHHHHHH,soluble
